Results: patent US20180305460A1 (Teva, published 2018)
Blank lines part the entries; values can stand above or below the binder they belong to.

Columns and labels:
[1] = target: Human CD38 on CD38-positive myeloma cell lines ARP-1 and H929 (human, UniProt P28907 43-300); assay: flow cytometry on ARP-1 cells, purified protein
Procedure: The flow binding refers to the concentration of antibody required to achieve 50% of maximal mean fluorescence intensity. […] Reported value is the EC₅₀ in μg/mL.
(§1) The ability of the antibodies or antibody-interferon constructs to bind the human CD38-positive myeloma cell lines ARP-1 or H929 in flow cytometry-based assays was tested. ARP-1 cells or H929 cells (5×10⁵, as judged by trypan blue exclusion) were incubated with each protein or with a human IgG4 monoclonal antibody with irrelevant specificity protein construct at various concentrations in 50 μL of FACS buffer (PBS plus 1% fetal calf serum, FCS, 0.2M HEPES, 0.5M EDTA) in 96 well plates for 60 minutes on ice in the dark. Cells were washed three times with FACS buffer before incubation for 30 minutes in 50 μL of FACS buffer containing goat anti-human IgG (Fc-specific, conjugated to fluorescein isothiocyanate, FITC; Sigma-Aldrich, St. Louis, Mo.). After washing three times with FACS buffer, cells were fixed with 50 μL of PBS containing 4% formaldehyde v/v and incubated at 4° C. in the dark for 16 hours. Incubated cells in suspension were diluted with an additional 150 μL of FACS buffer and analyzed for binding by flow cytometry on a FACS Canto II (BD Biosciences, San Diego, Calif.) using forward scatter, side scatter and fluorescence intensity in the FITC channel. The value reported is the mean fluorescence intensity (MFI).

Human CD38 [2] = target: T1, Human CD38 (human, UniProt P28907 43-300); assay: SPR (Biacore), the separate experiment in which X02.107 was evaluated
Human CD38 [3] = target: T1, Human CD38; assay: SPR (Biacore), the experiment for all other antibodies of Table 7
[4] = target: T2, Human CD38 on CD38-positive myeloma cells (ARP-1, H929) (human, UniProt P28907 43-300); assay: flow cytometry, ARP-1 cells (CD38-positive)
T2 construct: Endogenous CD38 on the human myeloma cell lines ARP-1 and H929, used in flow cytometry; also called NCI-H929
Procedure: as §1

Human CD38 [5] = target: T1, Human CD38; assay: SPR (Biacore), antibody from supernatant captured on Protein A, human CD38 injected, 1:1 fit
Procedure: The capacity of anti-CD38 antibodies and anti-CD38-attenuated IFN fusion proteins to bind to human CD38 were measured using unpurified transfected cell supernatant prepared 7:1 with Non Specific Binding Reducer (GE Healthcare, Piscataway, N.J.). […] FC2 (or FC4) was used as a reference throughout the experiments. The experiments were run at 37° C. in HBS-P+ buffer (0.01 M HEPES, 0.15 M NaCl, 0.005% v/v Surfactant P20, pH 7.4). At a flow rate of 20 l/min, both flow cells were regenerated with 10 μL 50 mM sodium hydroxide before 40 μL supernatant containing the protein was passed over FC1 (or FC3) only. 301 μL of CD38 (10 g/mL in running buffer) or 30 μL running buffer was injected over FC1 and FC2 with a 5 minute dissociation time. Both surfaces were regenerated twice with sodium hydroxide. Results were generated using the BIAevaluation software provided with the machine. Microsoft Excel was used for calculations. BIAevaluation software automatically subtracted the reference sensorgram giving a trace of FC2-1 (or FC4-3) for each sample. A double reference was performed for each antibody tested by subtracting the sensorgram with a CD38 injection from the sensorgram with a blank running buffer injection. […] BIAevalution was used to fit the sensorgram using a Langmuir 1:1 equation in order to generate an equilibrium association constant (KD)

EC50 [1]: 1.45 mg/L
B1: A02.1 (antibody)
heavy: QLQLQESGPGLVKPSETLSLTCTVSGGSISSSSYYWSWIRQHPGKGLEWIGYIYYSGSTNYNPSLKSRVTISVDTLKNQISLRLTSVTAADTAVYYCARVGGAGGWPMDVWGQGTTVTVSS
light: QAVLTQPASLSASPGESARLTCTLPSDINVRYYNIYWYQQKPGSPPRYLLYYYSDSHKGQGSGVPSRFSGSKDVSTNSGILLISGLQSEDEADYYCMTWSSNGSGVFGGGTQLTVLGQPKAAPSVTLFPPSSEELQANKATLVCLISDFYPGAVTVAWKADSSPVKAGVETTTPSKQSNNKYAASSYLSLTPEQWKSHRSYSCQVTHEGSTVEKTVAPTECS
notes: Anti-CD38 IgG4 fused to attenuated IFN-alpha2b A145D at the heavy chain C-terminus; also called X355/02-HC-L0-IFN-alpha (A145D) IgG4

Kd (Human CD38 [2]): 27 nM | Kd (Human CD38 [3]): 0.378 nM
B2: X02.1 (antibody, human IgG4 S228P)
heavy: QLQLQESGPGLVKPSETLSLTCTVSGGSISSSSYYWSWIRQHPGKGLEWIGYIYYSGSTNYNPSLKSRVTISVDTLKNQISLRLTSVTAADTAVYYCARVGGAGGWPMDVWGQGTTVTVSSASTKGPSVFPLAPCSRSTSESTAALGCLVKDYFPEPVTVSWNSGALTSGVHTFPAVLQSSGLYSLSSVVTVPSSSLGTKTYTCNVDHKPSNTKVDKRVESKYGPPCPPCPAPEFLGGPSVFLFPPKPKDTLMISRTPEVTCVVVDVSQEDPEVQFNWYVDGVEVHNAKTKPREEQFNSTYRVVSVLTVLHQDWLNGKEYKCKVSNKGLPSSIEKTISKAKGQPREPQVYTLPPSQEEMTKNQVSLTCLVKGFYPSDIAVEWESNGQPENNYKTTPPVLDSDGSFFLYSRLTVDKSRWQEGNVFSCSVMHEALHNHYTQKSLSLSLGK
VL: QAVLTQPASLSASPGESARLTCTLPSDINVRYYNIYWYQQKPGSPPRYLLYYYSDSHKGQGSGVPSRFSGSKDVSTNSGILLISGLQSEDEADYYCMTWSSNGSGVFGGGTQLTVLG
notes: Human IgG4 S228P, not fused to IFN; also called parental antibody X02.1

EC50 [4]: 16.8 mg/L | Kd (Human CD38 [5]): 0.0368 nM
B3: X02.69 (antibody, human IgG4 S228P)
heavy: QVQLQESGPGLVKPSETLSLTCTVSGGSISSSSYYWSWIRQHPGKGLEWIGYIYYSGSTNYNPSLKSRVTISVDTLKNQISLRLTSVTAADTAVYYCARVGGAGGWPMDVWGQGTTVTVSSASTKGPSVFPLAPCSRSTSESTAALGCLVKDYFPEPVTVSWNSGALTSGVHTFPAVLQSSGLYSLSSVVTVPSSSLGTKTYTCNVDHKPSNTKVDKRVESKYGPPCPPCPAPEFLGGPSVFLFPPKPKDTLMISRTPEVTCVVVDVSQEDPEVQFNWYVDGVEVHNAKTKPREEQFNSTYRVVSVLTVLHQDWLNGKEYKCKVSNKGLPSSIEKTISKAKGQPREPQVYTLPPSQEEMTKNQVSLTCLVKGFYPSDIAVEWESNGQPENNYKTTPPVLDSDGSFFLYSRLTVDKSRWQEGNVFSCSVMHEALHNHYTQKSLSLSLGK
VL: QAVLTQPASLSASPGESARLTCTLPSDINVRYYNIYWYQQKPGSPPRYLLYYYSDSHKGQGSGVPSRFSGSKDVSTNSGILLISGLQSEDEADYYCMTWSSNGSGVFGGGTQLTVLG
notes: IgG4 S228P; VH Q2V relative to X02.1
